In publication PMC11329725 (Nature Communications, 2024):

T1: OB23 (OB2-OB3 with tower) (human, UniProt P51587 2808-3192)
T1 sequence: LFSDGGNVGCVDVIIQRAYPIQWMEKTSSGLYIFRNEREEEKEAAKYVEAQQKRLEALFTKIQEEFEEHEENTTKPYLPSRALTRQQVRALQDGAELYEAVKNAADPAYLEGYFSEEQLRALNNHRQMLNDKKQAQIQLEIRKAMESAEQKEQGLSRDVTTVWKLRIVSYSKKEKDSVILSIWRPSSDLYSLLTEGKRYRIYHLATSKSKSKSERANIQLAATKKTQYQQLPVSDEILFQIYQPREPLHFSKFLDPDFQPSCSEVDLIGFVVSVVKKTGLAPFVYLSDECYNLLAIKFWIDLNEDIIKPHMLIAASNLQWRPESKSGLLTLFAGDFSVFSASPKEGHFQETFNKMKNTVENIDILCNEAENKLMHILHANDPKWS

T2: BRCA2 DBD (mouse, UniProt P97929 2378-3115)
T2 sequence: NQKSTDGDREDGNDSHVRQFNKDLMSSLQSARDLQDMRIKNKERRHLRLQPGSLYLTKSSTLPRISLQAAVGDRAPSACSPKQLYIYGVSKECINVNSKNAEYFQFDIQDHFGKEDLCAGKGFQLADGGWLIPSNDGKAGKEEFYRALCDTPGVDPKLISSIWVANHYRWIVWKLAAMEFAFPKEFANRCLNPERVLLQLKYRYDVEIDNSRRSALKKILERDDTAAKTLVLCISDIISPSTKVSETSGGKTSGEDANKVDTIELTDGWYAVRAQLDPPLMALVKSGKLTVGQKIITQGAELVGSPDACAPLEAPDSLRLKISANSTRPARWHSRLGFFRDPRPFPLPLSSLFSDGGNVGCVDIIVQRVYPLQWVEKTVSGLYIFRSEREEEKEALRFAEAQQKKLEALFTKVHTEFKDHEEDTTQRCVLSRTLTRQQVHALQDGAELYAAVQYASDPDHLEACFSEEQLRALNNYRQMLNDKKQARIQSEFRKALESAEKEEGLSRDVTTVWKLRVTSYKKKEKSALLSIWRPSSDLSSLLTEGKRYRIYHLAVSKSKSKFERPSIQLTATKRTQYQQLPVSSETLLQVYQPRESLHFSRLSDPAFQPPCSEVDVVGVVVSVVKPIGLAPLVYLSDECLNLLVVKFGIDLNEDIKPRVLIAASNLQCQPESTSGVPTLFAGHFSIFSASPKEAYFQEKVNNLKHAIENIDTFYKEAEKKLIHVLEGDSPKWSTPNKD

T3: His6-HDOB1 (human BRCA2 helical domain and OB fold 1, residues 2479-2807) (human, UniProt P51587 2479-2807)
T3 sequence: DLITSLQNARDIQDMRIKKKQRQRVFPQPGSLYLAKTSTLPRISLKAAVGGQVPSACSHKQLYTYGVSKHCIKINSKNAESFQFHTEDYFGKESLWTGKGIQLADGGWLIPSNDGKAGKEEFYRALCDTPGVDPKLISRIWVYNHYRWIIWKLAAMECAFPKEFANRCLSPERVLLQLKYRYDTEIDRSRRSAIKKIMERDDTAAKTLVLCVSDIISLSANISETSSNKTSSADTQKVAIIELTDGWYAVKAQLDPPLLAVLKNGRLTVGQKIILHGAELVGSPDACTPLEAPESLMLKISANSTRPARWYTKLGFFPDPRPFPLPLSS

B1: Cy5 80-mer ssDNA (oligo 1) (ssDNA)
DNA: TTATATCCTTTACTTTGAATTCTATGTTTAACCTTTTACTTATTTTGTATTAGCCGGACCTTATTTCAATTATGTTCAT
B2: Cy5 80-bp dsDNA (oligo 1/oligo 2) (dsDNA)
DNA 1: B1 DNA
DNA 2: ATGAACATAATTGAAATAAGGATCCGGCTAATACAAAATAAGTAAAAGGTTAAACATAGAATTCAAAGTAAAGGATATAA
B3: GST-DSS1 1-54, co-expressed with His6-HDOB1 in E. coli (domain or fragment)
chain: MSEKKQPVDLGLLEEDDEFEEFPAEDWAGLDEDEDAHVWEDNWDDDNVEDDFSN

Columns and labels:
[1] = biological target: T1, OB23 (OB2-OB3 with tower); assay: EMSA
BRCA2 DBD = biological target: T2, BRCA2 DBD; assay: EMSA
[2] = biological target: BRCA2 DBD;DSS1(1-36) (partner of DBD) (mouse;human?, UniProt P97929;P60896 2378-3115;1-36, |del37-70); assay: EMSA
[3] = biological target: BRCA2 DBD;DSS1(1-54) (partner of DBD) (mouse;human?, UniProt P97929;P60896 2378-3115;1-54, |del55-70); assay: EMSA
[4] = biological target: BRCA2 DBD;DSS1 R57Q (partner of DBD) (mouse;human?, UniProt P97929;P60896 2378-3115;1-70, |R57Q); assay: EMSA
[5] = biological target: T3, His6-HDOB1 (human BRCA2 helical domain …); assay: co-purification

| Binder | Kd [1] [nM] | binding result (BRCA2 DBD) | binding result [2] | binding result [3] | binding result [4] | binding result [5] |
| --- | --- | --- | --- | --- | --- | --- |
| B1 | 270 | binds | binds | binds | binds |  |
| B2 |  | binds | binds | binds | binds |  |
| MSEKKQPVDLGLLEEDDEFEEFPAEDWAGLDEDEDAHVWEDNWDD (domain or fragment) [GST-DSS1 1-45, co-expressed with His6-HDOB1 in E. coli] |  |  |  |  |  | binds |
| B3 |  |  |  |  |  | binds |
